The values that follow come from IntAct's records for PubMed 23039992.

B1: Tumor necrosis factor receptor superfamily member 11B (Mus musculus), O08712 (parent)
chain: MNKWLCCALLVLLDIIEWTTQETLPPKYLHYDPETGHQLLCDKCAPGTYLKQHCTVRRKTLCVPCPDHSYTDSWHTSDECVYCSPVCKELQSVKQECNRTHNRVCECEEGRYLEIEFCLKHRSCPPGSGVVQAGTPERNTVCKKCPDGFFSGETSSKAPCIKHTNCSTFGLLLIQKGNATHDNVCSGNREATQKCGIDVTLCEEAFFRFAVPTKIIPNWLSVLVDSLPGTKVNAESVERIKRRHSSQEQTFQLLKLWKHQNRDQEMVKKIIQDIDLCESSVQRHLGHSNLTTEQLLALMESLPGKKISPEEIERTRKTCKSSEQLLKLLSLWRIKNGDQDTLKGLMYALKHLKTSHFPKTVTHSLRKTMRFLHSFTMYRLYQKLFLEMIGNQVQSVKISCL

The variants in the first test derive from B1. Particulars: with Tnfsf11, O35235-1.
Tnfsf11, O35235-1, sequence (O35235 whole entry): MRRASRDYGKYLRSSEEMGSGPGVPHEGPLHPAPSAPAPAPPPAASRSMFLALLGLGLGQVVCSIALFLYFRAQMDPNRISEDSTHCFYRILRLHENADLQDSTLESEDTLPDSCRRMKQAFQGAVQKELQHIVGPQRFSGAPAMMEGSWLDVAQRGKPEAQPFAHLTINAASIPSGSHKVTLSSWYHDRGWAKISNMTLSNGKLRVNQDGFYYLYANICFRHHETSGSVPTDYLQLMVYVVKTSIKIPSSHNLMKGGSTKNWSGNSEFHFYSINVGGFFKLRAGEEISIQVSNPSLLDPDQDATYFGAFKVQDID
F117L: the “effect of a mutation on the interaction” value was “increasing interaction strength”.

A further test covers variants of B1. To be noted: with Tnfsf11, O35235-1. This is another data set of the same source.
In the case of F117A, the “effect of a mutation on the interaction” value is given as “increasing interaction strength”.
